Peptide text beside a SMILES is read from it. * marks the point of attachment. X1 = Cc1cc[n+]2c(c1)-c1cc(C(=O)*)cc[n+]1[Ir-3]213([c]2c(sc4ccccc24)-c2c4ccccc4cc[n+]21)[c]1c(sc2ccccc12)-c1c2ccccc2cc[n+]13; Isonicotinoyl(2-(4-Me-2-Py)) = Cc1ccnc(-c2cc(C(=O)*)ccn2)c1
Experiments:
[1] = 1O2 generation quantum yield; format: physicochemical; conditions: aerated CH3CN/H2O (4:1, v/v), 298 K, λex 450 nm
Method: The ^1O2 generation efficiencies of all complexes were evaluated by monitoring the emission band of ^1O2 centered at ca. […]

MDA-MB-231 cells [2] = assay: Cellular uptake mechanism studies (ICP-MS); format: cell-based; conditions: 10 μM
Method: Conjugate 3a-CASP: MDA-MB-231 cells were seeded in a 35-mm tissue culture dish and incubated at 37 °C under a 5% CO2 atmosphere for 48 h. The culture medium was removed and replaced with conjugate 3a-CASP (10 μM) in medium/DMSO (99:1, v/v) at 37 °C under a 5% CO2 atmosphere for 4 or 16 h. In the low-temperature experiments, the cells were preincubated at 4 °C for 1 h prior to incubation with conjugate 3a-CASP (10 μM) in medium/DMSO (99:1, v/v) […]. In the chemical inhibition experiments, the cells were pretreated with EIPA (50 μM) for 1.5 h, Me-β-CD (5 mM) for 1 h, or chlorpromazine (30 μM) for 1 h at 37 °C under a 5% CO2 atmosphere. The cells were then washed with PBS (1 mL × 3) and incubated with conjugate 3a-CASP (10 μM) in medium/DMSO (99:1, v/v) at 37 °C under a 5% CO2 atmosphere for 16 h.
Conjugate 3a-CYNT: MDA-MB-231 cells were seeded in a 35-mm tissue culture dish and incubated at 37 °C under a 5% CO2 atmosphere for 48 h. The culture medium was removed and replaced with conjugate 3a-CYNT (10 μM) in medium/DMSO (99:1, v/v) at 37 °C under a 5% CO2 atmosphere for 16 h. In the CAIX inhibition experiments, the cells were pretreated with acetazolamide (1 mM) at 37 °C under a 5% CO2 atmosphere for 6 h. The cells were then washed with PBS (1 mL × 3) and incubated with conjugate 3a-CYNT (10 μM) in medium/DMSO (99:1, v/v) at 37 °C under a 5% CO2 atmosphere for 16 h.
Conjugate 3a-CMYI: MDA-MB-231 cells were seeded in a 35-mm tissue culture dish and incubated at 37 °C under a 5% CO2 atmosphere for 48 h. The culture medium was removed and replaced with conjugate 3a-CMYI (10 μM) in medium/DMSO (99:1, v/v) at 37 °C under a 5% CO2 atmosphere for 16 h. In the EGFR inhibition experiments, the cells were pretreated with gefitinib (50 μM) at 37 °C under a 5% CO2 atmosphere for 1 h. The cells were then washed with PBS (1 mL × 3) and incubated with conjugate 3a-CMYI (10 μM) in medium/DMSO (99:1, v/v) at 37 °C under a 5% CO2 atmosphere for 16 h.
For all the experiments, after incubation with the conjugates, the medium was removed, and the cells were washed with PBS (1 mL × 3). The cells were then trypsinized and harvested with PBS (1 mL). The cell numbers were measured by a Logos Biosystems LUNA-II automated cell counter. The resultant solution was digested with 65% HNO3 (1 mL) at 70 °C for 2 h, allowed to cool to room temperature, and analyzed by a NexION 2000 ICP-MS (PerkinElmer SCIEX Instruments).

MDA-MB-231 cells [3] = assay: MTT (photo)cytotoxicity assay; format: cell-based; conditions: ratio IC50,dark/IC50,light, 24 h incubation
Method: (§1) HeLa or HEK-293 cells were seeded in two 96-well flat-bottomed microplates (ca. 10,000 cells per well) in growth medium (100 μL) and incubated at 37 °C under a 5% CO2 atmosphere for 48 h. The growth medium was removed and replaced with medium/DMSO (100 μL, 99:1, v/v) containing complex 3a with concentrations ranging from 10^–5 to 10^–8 M. Wells containing untreated cells were used as blank control. The microplates were incubated at 37 °C in the dark under a 5% CO2 atmosphere for 2 h. After the treatment, the medium was removed and replenished with phenol red-free growth medium (100 μL). One of the microplates was irradiated at 450 nm (14.6 mW cm^–2) for 10 min with an LED cellular photocytotoxicity irradiator (PURI Materials, Shenzhen, China) and the other microplate was kept in the dark. Then the growth medium was replaced with fresh medium and the cells were further incubated at 37 °C under a 5% CO2 atmosphere for 24 h. The medium in each well was then replaced with fresh medium (90 μL) and 10 μL of MTT (5 mg mL^ –1) in PBS. The microplates were incubated at 37 °C under a 5% CO2 atmosphere for 4 h. The growth medium was then removed, and DMSO (100 μL) was added to each well. After 20 min, the absorbance of the solutions at 570 nm was measured with an Multiskan SkyHigh Microplate Spectrophotometer (Thermo Scientific). The IC50 values of the complex were determined from dose dependence of surviving cells after the treatment using the OriginPro 8.0 software package. For conjugates 3a-CASP, 3a-CYNT, and 3a-CMYI, the procedure was similar to that of complex 3a, except that MDA-MB-231, MCF-7, and HEK-293 cells were used and the conjugates were incubated for 24 h instead of 2 h before irradiation.

MCF-7 cells [4] = assay: MTT (photo)cytotoxicity assay; format: cell-based; conditions: ratio IC50,dark/IC50,light, 24 h incubation
Method: as §1

HEK-293 cells [5] = assay: MTT (photo)cytotoxicity assay; format: cell-based; conditions: ratio IC50,dark/IC50,light, 24 h incubation
Method: as §1

MDA-MB-231 cells [6] = assay: Cellular uptake by ICP-MS; format: cell-based; conditions: 10 μM, 37 °C, 16 h
Method: (§2) HeLa or HEK-293 cells were seeded in a 35-mm tissue culture dish and incubated at 37 °C under a 5% CO2 atmosphere for 48 h. The culture medium was removed and replaced with complexes 1a and 3a (10 μM) in medium/DMSO (99:1, v/v) at 37 °C under a 5% CO2 atmosphere for 2 h. After the treatment, the medium was removed, and the cells were washed with PBS (1 mL × 3). The cells were then trypsinized and harvested with PBS (1 mL). The cell numbers were obtained by a Logos Biosystems LUNA-II automated cell counter. The resultant solution was digested with 65% HNO3 (1 mL) at 70 °C for 2 h, allowed to cool to room temperature, and analyzed by a NexION 2000 ICP-MS (PerkinElmer SCIEX Instruments). For conjugates 3a-Cys, 3a-CASP, 3a-CYNT, and 3a-CMYI, the procedure was similar to that of complexes 1a and 3a, except that MDA-MB-231, MCF-7, and HEK-293 cells were used and the conjugates were incubated for 16 h instead of 2 h before the measurements.

MCF-7 cells [7] = assay: Cellular uptake by ICP-MS; format: cell-based; conditions: 10 μM, 37 °C, 16 h
Method: as §2

HEK-293 cells [8] = assay: Cellular uptake by ICP-MS; format: cell-based; conditions: 10 μM, 37 °C, 16 h
Method: as §2

[9] = Reaction kinetics with L-Cys by HPLC; conditions: potassium phosphate buffer (50 mM, pH 7.0)/DMSO (3:2, v/v), TCEP 250 μM, 298 K
Method: The reactivity of the thioester complexes 1a–4a toward N-Cys-containing biomolecules in potassium phosphate buffer (50 mM, pH 7.0)/DMSO (3:2, v/v) containing tris(2-carboxyethyl)-phosphine (TCEP) (250 μM) at 298 K (Scheme ) were investigated using L-Cys as a model. […] The formation of the conjugation products 1a-Cys–4a-Cys was validated by ESI-MS analyses (Figure S7). The isolated conjugate 1a-Cys was further characterized by 1D and 2D COSY ^1H NMR. The signals at δ = 8.18 and 1.89 ppm in the ^1H NMR spectra (Figures S8 and S9) correspond to the CONH and SH protons, respectively, confirming the successful labeling of L-Cys with the thioester complex via the NCL reaction involving transthioesterification and an S → N acyl shift. […]
All reactions were performed on a 100-µL scale. The reaction kinetics of the thioester complexes 1a – 4a (20 µM) and ligand bpy-COSBn (100 µM) with L-Cys (25 µM for the complexes and 250 µM for the ligand) in potassium phosphate buffer (50 mM, pH 7.0)/DMSO (3:2, v/v) containing TCEP (250 µM) at 298 K was measured by reversed-phase high-performance liquid chromatography (RP-HPLC). The reactions at different time points were quenched by the addition of 900 µL of cold H2O/CH3CN (1:1, v/v) and then analyzed by RP-HPLC. […] The second-order rate constants (k2) were determined by fitting the data to the following equation: […]

| Compound | 1O2 generation quantum yield (ΦΔ) [1] | reduction of uptake after acetazolamide (CAIX inhibitor) pretreatment (MDA-MB-231 cells [2]; 16 h, acetazolamide 1 mM, 6 h) | PI (MDA-MB-231 cells [3]) | PI (MCF-7 cells [4]) | PI (HEK-293 cells [5]) | Amount of iridium associated with an average cell (MDA-MB-231 cells [6]) | Amount of iridium associated with an average cell (MCF-7 cells [7]) | Amount of iridium associated with an average cell (HEK-293 cells [8]) | second-order rate constant (k2) for reaction with L-Cys [9] | decrease in intracellular iridium content at 4 °C (MDA-MB-231 cells [2]; 4 h, 4 °C versus 37 °C) | reduction of cellular uptake efficiency after chlorpromazine pretreatment (MDA-MB-231 cells [2]; 16 h, chlorpromazine 30 μM, 1 h) | reduction of uptake after gefitinib (EGFR inhibitor) pretreatment (MDA-MB-231 cells [2]; 16 h, gefitinib 50 μM, 1 h) |
| --- | --- | --- | --- | --- | --- | --- | --- | --- | --- | --- | --- | --- |
| Cc1cc[n+]2c(c1)-c1cc(C(=O)N[C@@H](CS)C(=O)N[C@@H](Cc3ccc(O)cc3)C(=O)N[C@@H](CC(N)=O)C(=O)N[C@H](C(=O)N[C@@H](CC(N)=O)C(=O)N[C@@H](Cc3c[nH]cn3)C(=O)N[C@H](C(=O)N3CCC[C@H]3C(=O)N[C@@H](CC(C)C)C(=O)N[C@@H](CO)C(=O)N3CCC[C@H]3C(=O)N[C@@H](CCCCN)C(=O)N[C@@H](Cc3ccc(O)cc3)C(=O)O)C(C)C)[C@@H](C)O)cc[n+]1[Ir-3]213([c]2c(sc4ccccc24)-c2c4ccccc4cc[n+]21)[c]1c(sc2ccccc12)-c1c2ccccc2cc[n+]13 [Conjugate 3a-CYNT] (X1-CYNTNHVPLSPKY-OH; C-terminus assumed) | 0.28 | ca. 20% | >139 | >38 | >45 | 1.8 fmol | 0.10 fmol | 0.10 fmol |  |  |  |  |
| Cc1ccnc(-c2cc(C(=O)SCc3ccccc3)ccn2)c1 [bpy-COSBn, S-benzyl 4’-methyl-2,2’-bipyridine-4-carbothioate] |  |  |  |  |  |  |  |  | 11.3 M^–1 s^–1 |  |  |  |
| Cc1ccnc(-c2cc(C(=O)N[C@@H](CS)C(=O)N[C@@H](C)C(=O)N[C@@H](CO)C(=O)N3CCC[C@H]3C(=O)N[C@@H](CO)C(=O)NCC(=O)N[C@@H](C)C(=O)N[C@@H](CC(C)C)C(=O)N[C@@H](CCCNC(=N)N)C(=O)N[C@@H](CO)C(=O)N[C@@H](CS)C(=O)O)ccn2)c1 [Conjugate 3a-CASP] ({Isonicotinoyl(2-(4-Me-2-Py))}-CASPSGALRSC-OH; C-terminus assumed) | 0.24 |  | >61 | >18 | >18 | 1.6 fmol | 0.10 fmol | 0.074 fmol |  | ca. 70% | ca. 30% |  |
| CC[C@H](C)[C@H](NC(=O)[C@H](Cc1ccc(O)cc1)NC(=O)[C@H](CCSC)NC(=O)[C@H](CS)NC(=O)c1cc[n+]2c(c1)-c1cc(C)cc[n+]1[Ir-3]213([c]2c(sc4ccccc24)-c2c4ccccc4cc[n+]21)[c]1c(sc2ccccc12)-c1c2ccccc2cc[n+]13)C(=O)N[C@@H](CCC(=O)O)C(=O)N[C@@H](C)C(=O)N[C@@H](CC(C)C)C(=O)N[C@@H](CC(=O)O)C(=O)N[C@@H](CCCCN)C(=O)N[C@@H](Cc1ccc(O)cc1)C(=O)N[C@@H](C)C(=O)N[C@@H](CS)C(=O)O [Conjugate 3a-CMYI] (X1-CMYIEALDKYAC-OH; C-terminus assumed) | 0.20 |  | >109 | >25 | >28 | 0.21 fmol | 0.074 fmol | 0.033 fmol |  |  |  | ~10% |

Reference: publication PMC12188478, “Leveraging the Aminothiol-Specific Phosphorogenic Response of Iridium(III) Thioester Complexes for the Development of Intracellular Sensors and Cancer Phototherapeutics” (JACS Au, 2025)
